Assays:
[1] = biological target: serum fucosylated PSA (prostate specific antigen) (human) (UniProt P07288); assay: sandwich ELISA, anti-PSA antibody capture, biotin-lectin detection, pH 7.4; serum of Prostate cancer 1 (GS 4)
[2] = biological target: serum fucosylated PSA (prostate specific antigen) (human) (UniProt P07288); assay: sandwich ELISA, anti-PSA antibody capture, biotin-lectin detection, pH 7.4; serum of Healthy 4
[3] = biological target: serum fucosylated PSA (prostate specific antigen) (human) (UniProt P07288); assay: sandwich ELISA, anti-PSA antibody capture, biotin-lectin detection, pH 7.4; serum of Prostate cancer 9 (GS 8)
[4] = biological target: serum fucosylated PSA (prostate specific antigen) (human) (UniProt P07288); assay: sandwich ELISA, anti-PSA antibody capture, biotin-lectin detection, pH 7.4; serum of Healthy 2
[5] = biological target: serum fucosylated PSA (prostate specific antigen) (human) (UniProt P07288); assay: sandwich ELISA, anti-PSA antibody capture, biotin-lectin detection, pH 7.4; sera of subgroup GS6, n=2
[6] = biological target: serum fucosylated PSA (prostate specific antigen) (human) (UniProt P07288); assay: sandwich ELISA, anti-PSA antibody capture, biotin-lectin detection, pH 7.4; serum of Healthy 1
[7] = biological target: serum fucosylated PSA (prostate specific antigen) (human) (UniProt P07288); assay: sandwich ELISA, anti-PSA antibody capture, biotin-lectin detection, pH 7.4; sera of the prostate cancer patient group (n=9)
[8] = biological target: serum fucosylated PSA (prostate specific antigen) (human) (UniProt P07288); assay: sandwich ELISA, anti-PSA antibody capture, biotin-lectin detection, pH 7.4; serum of Prostate cancer 6 (GS 7)
[9] = biological target: serum fucosylated PSA (prostate specific antigen) (human) (UniProt P07288); assay: sandwich ELISA, anti-PSA antibody capture, biotin-lectin detection, pH 7.4; serum of Healthy 6
[10] = biological target: serum fucosylated PSA (prostate specific antigen) (human) (UniProt P07288); assay: sandwich ELISA, anti-PSA antibody capture, biotin-lectin detection, pH 7.4; serum of Prostate cancer 5 (GS 7)
[11] = biological target: serum fucosylated PSA (prostate specific antigen) (human) (UniProt P07288); assay: sandwich ELISA, anti-PSA antibody capture, biotin-lectin detection, pH 7.4; serum of Prostate cancer 3 (GS 6)
[12] = biological target: serum fucosylated PSA (prostate specific antigen) (human) (UniProt P07288); assay: sandwich ELISA, anti-PSA antibody capture, biotin-lectin detection, pH 7.4; serum of Prostate cancer 2 (GS 5)
[13] = biological target: serum fucosylated PSA (prostate specific antigen) (human) (UniProt P07288); assay: sandwich ELISA, anti-PSA antibody capture, biotin-lectin detection, pH 7.4; sera of subgroup GS7, n=2
[14] = biological target: serum fucosylated PSA (prostate specific antigen) (human) (UniProt P07288); assay: sandwich ELISA, anti-PSA antibody capture, biotin-lectin detection, pH 7.4; serum of Healthy 7
[15] = biological target: serum fucosylated PSA (prostate specific antigen) (human) (UniProt P07288); assay: sandwich ELISA, anti-PSA antibody capture, biotin-lectin detection, pH 7.4; serum of Prostate cancer 7 (GS 8)
[16] = biological target: serum fucosylated PSA (prostate specific antigen) (human) (UniProt P07288); assay: sandwich ELISA, anti-PSA antibody capture, biotin-lectin detection, pH 7.4; serum of Prostate cancer 4 (GS 6)
[17] = biological target: serum fucosylated PSA (prostate specific antigen) (human) (UniProt P07288); assay: sandwich ELISA, anti-PSA antibody capture, biotin-lectin detection, pH 7.4; sera of subgroup Negative (GS5 or less), n=2
[18] = biological target: serum fucosylated PSA (prostate specific antigen) (human) (UniProt P07288); assay: sandwich ELISA, anti-PSA antibody capture, biotin-lectin detection, pH 7.4; serum of Healthy 5
[19] = biological target: serum fucosylated PSA (prostate specific antigen) (human) (UniProt P07288); assay: sandwich ELISA, anti-PSA antibody capture, biotin-lectin detection, pH 7.4; serum of Prostate cancer 8 (GS 8)
[20] = biological target: serum fucosylated PSA (prostate specific antigen) (human) (UniProt P07288); assay: sandwich ELISA, anti-PSA antibody capture, biotin-lectin detection, pH 7.4; serum of Healthy 3
[21] = biological target: serum fucosylated PSA (prostate specific antigen) (human) (UniProt P07288); assay: sandwich ELISA, anti-PSA antibody capture, biotin-lectin detection, pH 7.4; sera of the healthy person group (n=7)
[22] = biological target: serum fucosylated PSA (prostate specific antigen) (human) (UniProt P07288); assay: sandwich ELISA, anti-PSA antibody capture, biotin-lectin detection, pH 7.4; sera of subgroup GS8 or more, n=3
[23] = biological target: serum fucosylated PSA (prostate specific antigen) (human) (UniProt P07288); assay: sandwich ELISA, anti-PSA antibody capture, biotin-lectin detection, lectin reaction pH 9.6; serum of Healthy 1
[24] = biological target: serum fucosylated PSA (prostate specific antigen) (human) (UniProt P07288); assay: sandwich ELISA, anti-PSA antibody capture, biotin-lectin detection, lectin reaction pH 7.4; serum of Prostate cancer 4
[25] = biological target: serum fucosylated PSA (prostate specific antigen) (human) (UniProt P07288); assay: sandwich ELISA, anti-PSA antibody capture, biotin-lectin detection, lectin reaction pH 9.6; serum of Prostate cancer 4
[26] = biological target: serum fucosylated PSA (prostate specific antigen) (human) (UniProt P07288); assay: sandwich ELISA, anti-PSA antibody capture, biotin-lectin detection, lectin reaction pH 7.4; serum of Healthy 1

For “Aleuria aurantia lectin (AAL), biotin-labeled (from UniProt P18891 2-313)”, the AAL reaction value [1] was 831 U/mL, the AAL reaction value [2] was 115 U/mL and the AAL reaction value [3] was 988 U/mL. For the same substance, the AAL reaction value [4] was 855 U/mL, the AAL reaction value (mean value) [5] was 1040 U/mL and the AAL reaction value (median value) [5] was 1040 U/mL. It also gave an AAL reaction value [6] of 1100 U/mL, an AAL reaction value (average value) [7] of 1020 U/mL and an AAL reaction value (median value) [7] of 1010 U/mL. It also gave an AAL reaction value [8] of 962 U/mL, an AAL reaction value [9] of 1190 U/mL and an AAL reaction value [10] of 1020 U/mL. It also gave an AAL reaction value [11] of 1150 U/mL, an AAL reaction value [12] of 1030 U/mL and an AAL reaction value (mean value) [13] of 993 U/mL. It also gave an AAL reaction value (median value) [13] of 993 U/mL, an AAL reaction value [14] of 1030 U/mL and an AAL reaction value [15] of 1210 U/mL. For the same substance, the AAL reaction value [16] was 926 U/mL, the AAL reaction value (mean value) [17] was 932 U/mL and the AAL reaction value (median value) [17] was 932 U/mL. For the same substance, the AAL reaction value [18] was 32.3 U/mL, the AAL reaction value [19] was 1010 U/mL and the AAL reaction value [20] was 1060 U/mL. It also gave an AAL reaction value (average value) [21] of 769 U/mL, an AAL reaction value (median value) [21] of 1030 U/mL and an AAL reaction value (mean value) [22] of 1070 U/mL. The AAL reaction value (median value) [22] was 1010 U/mL.
Substance “Naematoloma sublateritium lectin (NSL), biotin-labeled” has an NSL reaction value [23] of 42.3 U/mL, an NSL reaction value [24] of 400 U/mL and an NSL reaction value [25] of 283 U/mL. It also gave an NSL reaction value [26] of 178 U/mL.
With “Pholiota squarrosa lectin peptide (PhoSL peptide), biotin-labeled” the PhoSL peptide reaction value [24] was 102 U/mL, the PhoSL peptide reaction value [25] was 234 U/mL and the PhoSL peptide reaction value [26] was 1 U/mL.
For “Stropharia rugosoannulata lectin (SRL), biotin-labeled”, the SRL reaction value [23] was 16.8 U/mL, the SRL reaction value [24] was 146 U/mL and the SRL reaction value [25] was 234 U/mL. For the same substance, the SRL reaction value [26] was 20 U/mL.
Work on “Amanita muscaria lectin (AML), biotin-labeled” yielded an AML reaction value [24] of 141 U/mL, an AML reaction value [25] of 151 U/mL and an AML reaction value [26] of 21.2 U/mL.

From patent US20200264182A1, “METHOD FOR DETECTING PROSTATE CANCER” (J-OIL MILLS, INC., priority 2017, published 2020)
